In patent publication US20250171550A1 (NINGBO T MAXIMUM BIOPHARMACEUTICALS, published 2025):
Residue numbers refer to the chain shown, from its start. In names and notes the source's numbering stands.

T1: BCMA-Fc recombinant protein (human, UniProt Q02223 1-54)
T1 construct: also called human BCMA protein; BCMA protein; not shown: Fc part
T1 sequence (looked up): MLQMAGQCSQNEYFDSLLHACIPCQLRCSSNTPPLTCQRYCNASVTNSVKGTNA

T2: Biotin-BCMA-Fc (human, UniProt Q02223 1-54, labelled with NHS-biotin, sites not stated)
T2 construct: also called Biotin-BCMA-Fc protein; labeled BCMA-Fc recombinant protein; not shown: Fc part
T2 sequence (looked up): T1 sequence (looked up)

B1: humanized single-domain antibody huD1 (Fc fusion)
chain: QVQLVESGGGLVQPGGSLRLSCAASGRTSTTSVMGWFRQAPGKERRFVAAITRTDDRQNDGITYYADSVKGRFTISRDNSKNTLYLQMNSLRAEDTAVYYCAAHTSLVFTPDPRYWGQGTLVTVSS
notes: Humanized on DP-47 frameworks, original FR2 kept; not shown: fusion partner
B2: single-domain antibody D1 (Fc fusion)
chain: B1 chain with P14A, A23V, A66G, D67E, S80D, L84V, R92K, A93P, L121P, S125P
notes: not shown: human IgG1 Fc, ligated in series to the VHH (vector Lenti-hIgG1-Fc2)
B3: humanized single-domain antibody huD1FGLF (Fc fusion)
chain: B1 chain with E44G, R45L, R46E
notes: FR1, FR3 and FR4 replaced and FR2 mutated; Fusion partner inferred; also called huDIFGLF; not shown: fusion partner
B4: humanized single-domain antibody hu4811 (Fc fusion)
chain: QVQLVESGGGLVQPGGSLRLSCAASGHTPSNYAMGWFRQTPGKEREFVAAITWSAVTRDDAIPYYADSVKGRFTISRDNSKNTLYLQMNSLRAEDTAVYYCAVDASLVMTPTPRYWGQGTLVTVSS
notes: Humanized on DP-47 frameworks, original FR2 kept; Fusion partner inferred; not shown: fusion partner
B5: single-domain antibody 48-11 (Fc fusion)
chain: B4 chain with P14A, A66R, D67T, S80A, L84V, R92K, A93P, L121Q
notes: Supernatant was used in flow cytometry, Protein A purified material in Biacore; not shown: human IgG1 Fc, ligated in series to the VHH (vector Lenti-hIgG1-Fc2)
B6: humanized single-domain antibody hu4811FGLF (Fc fusion)
chain: B4 chain with T40A, E44G, R45L
notes: FR1, FR3 and FR4 replaced and T45A, E49G, R50L in FR2; Fusion partner inferred; not shown: fusion partner
B7: C6 (Fc fusion)
VHH-Fc fusion chain: QVQLVESGGGLVETGSSLRLSCKSSGHSFSDYSLAWFRQAPGKEREFVAAITWSDVPRDDAVTYYRVDVKGRFTISRDNAKNTVYLQMNSLKPEDTAVYYCAVDASLVMTLTPRYWGQGTQVTVSS
notes: also called single-domain antibody C6
B8: C2 (Fc fusion)
VHH-Fc fusion chain: QVQLVESGGGLVQAGGSLRLSCVASGLTFSNYAMGWFRQGPGKDRDFVAAITRSDERQNDGVTYYRVSVKGRFTISRDNANDTVYLQMNSLKPEDTAIYYCAADPSLVFSPTLRYWGQGTLVTVSS
notes: also called single-domain antibody C2
B9: D10 (Fc fusion)
VHH-Fc fusion chain: B8 VHH-Fc fusion chain with A14P, V23A, L27F, T28S, F29L, S30N, A33V, M34I, G40A, L113P
notes: also called single-domain antibody D10

molecular target: T1, BCMA-Fc recombinant protein; experiment: SPR, Biacore 8K, CM5 chip; antibody captured by anti-human IgG (Fc), human BCMA protein as analyte (paragraph 147 describes the reverse format)
Experimental: The mouse anti-human IgG (Fc) antibody was diluted with the immobilization reagent (sodium acetate, pH 5.0): 950 μL of the immobilization reagent was added to 50 μL of the mouse anti-human IgG (Fc) antibody. The dilution was used for immobilization in eight channels. First, the surface of the CM5 chip was activated for 360 s with EDC and NHS at a flow rate of 10 μL/min. Then, the mouse anti-human IgG (Fc) antibody was injected into the channels (channels 1-8, Fc1,2) at a flow rate of 10 μL/min for about 360 s, with the level of immobilization at about 7000 to 14,000 RU. Finally, the chip was blocked with ethanolamine at 10 μL/min for 420 s.
Human BCMA protein was diluted 2-fold with the running reagent. The diluted human BCMA protein was injected into the experimental channels and the reference channels in sequence at a flow rate of 30 μL/min, and corresponding periods of association and dissociation were allowed. The association and dissociation steps were all performed in the running reagent. After each concentration analysis, the chip needed to be regenerated with magnesium chloride at a flow rate of 20 μL/min for 30 s to wash away the ligand and undissociated analyte. For the next concentration analysis, the experimental channels needed to recapture the same amount of ligand.
A KD value was calculated for each sample using Biacore 8K analysis software Biacore Insight Evaluation Software. The reference channels (Fc1) were used for background subtraction.

Kd [nM] | koff [s⁻¹] | kon [M⁻¹ s⁻¹] | Binder
1.9 | 0.0141 | 7.41e+06 | B1
0.243 | 0.00212 | 8.73e+06 | B2
9.25 | 0.0579 | 6.26e+06 | B3
9.71 | 0.0698 | 7.19e+06 | B4
0.0379 | 0.0013 | 3.42e+07 | B5
10.2 | 0.126 | 1.24e+07 | B6

molecular target: T2, Biotin-BCMA-Fc; experiment: flow cytometry of the induced yeast single clone displaying the VHH, Biotin-BCMA-Fc and PE-streptavidin
Experimental: After two rounds of magnetic sorting were repeated, a part of the yeast was cultured and subjected to induced expression and flow cytometry assays. Another part was directly applied onto a PAD plate, and single clones were then picked and cultured, and were incubated simultaneously with Biotin-Fc and Biotin-BCMA-Fc 24 h after induced expression, with PE-Streptavidin as a secondary antibody; after incubation, flow cytometry assays were performed, and the results are shown in FIG. 3, where 14 clones are shown to bind to Biotin-BCMA-Fc.

binding result | percent of cells in gate R3 [%] | Binder
binds |  | B2
 | 93.3 | B7
 | 98.4 | B5
 | 95.3 | B8
 | 99.8 | B9
